Laboratory results: article PMC9646879, “Cryo-EM reveals the architecture of the PELP1-WDR18 molecular scaffold” (Nature Communications, 2022)

B1: N-terminally FLAG-tagged PELP1 Rix1 domain (1-642aa) (domain or fragment)
chain: not shown
notes: PELP1, human, N-terminal Rix1 domain, residues 1-642; Two copies stand in the PELP1-WDR18 heterotetramer of the cryo-EM structure; also called Rix1 domain of PELP1; source: HEK293FT, transiently transfected; not shown: FLAG, N-terminal, kept
B2: epitope-tagged SENP3 (enzyme)
chain: not shown
notes: SENP3, human; Blots used anti-HA, anti-GFP and anti-MYC antibodies; also called SUMO protease SENP3; source: HEK293FT, transiently transfected; in lysate (co-IP) and co-purified with C-terminal FLAG-tagged PELP1 (cross-linking)

Columns and labels:
[1] = target: the molecule itself; test: cryo-EM structure; PELP1 Rix1 domain and WDR18 co-expressed in HEK293FT and co-purified on anti-FLAG gel; 150 mM NaCl, 50 mM Hepes pH 7.7, 5 mM MgCl2; 0.24 mg/ml; C2 symmetry, 2.7 Å
[2] = target: T1, C-terminal FLAG-tagged PELP1 (full length) (human, UniProt Q8IZL8 1-1130); test: cross-linking; BS3 cross-linking with mass spectrometry of the Rix1 complex purified via the C-terminal FLAG tag on full-length PELP1; 2.0 uM complex, 50 mM Hepes pH 7.3, 600 mM NaCl, 5 mM MgCl2, 5% glycerol, room temperature 10 min; BS3 1.2 mM (methods) or 0.12 mM (results); settings: both partners purified
T1 construct: also called C-terminal PELP1 IP; source: HEK293FT, transiently transfected; in lysate (co-IP) and purified with the Rix1 complex via the C-terminal FLAG tag (cross-linking); not shown: FLAG, C-terminal, kept

epitope-tagged SENP3 = target: B2; test: as above; settings: both partners purified
[3] = target: B1; test: cross-linking; BS3 cross-linking with mass spectrometry of the PELP1 Rix1 domain-WDR18 sub-complex purified via the N-terminal FLAG tag; 6.0 uM complex, 1.0 mM BS3, 50 mM Hepes pH 7.3, 600 mM NaCl, 5 mM MgCl2, 5% glycerol, room temperature 10 min; settings: both partners purified

T1 sequence (Q8IZL8 whole entry): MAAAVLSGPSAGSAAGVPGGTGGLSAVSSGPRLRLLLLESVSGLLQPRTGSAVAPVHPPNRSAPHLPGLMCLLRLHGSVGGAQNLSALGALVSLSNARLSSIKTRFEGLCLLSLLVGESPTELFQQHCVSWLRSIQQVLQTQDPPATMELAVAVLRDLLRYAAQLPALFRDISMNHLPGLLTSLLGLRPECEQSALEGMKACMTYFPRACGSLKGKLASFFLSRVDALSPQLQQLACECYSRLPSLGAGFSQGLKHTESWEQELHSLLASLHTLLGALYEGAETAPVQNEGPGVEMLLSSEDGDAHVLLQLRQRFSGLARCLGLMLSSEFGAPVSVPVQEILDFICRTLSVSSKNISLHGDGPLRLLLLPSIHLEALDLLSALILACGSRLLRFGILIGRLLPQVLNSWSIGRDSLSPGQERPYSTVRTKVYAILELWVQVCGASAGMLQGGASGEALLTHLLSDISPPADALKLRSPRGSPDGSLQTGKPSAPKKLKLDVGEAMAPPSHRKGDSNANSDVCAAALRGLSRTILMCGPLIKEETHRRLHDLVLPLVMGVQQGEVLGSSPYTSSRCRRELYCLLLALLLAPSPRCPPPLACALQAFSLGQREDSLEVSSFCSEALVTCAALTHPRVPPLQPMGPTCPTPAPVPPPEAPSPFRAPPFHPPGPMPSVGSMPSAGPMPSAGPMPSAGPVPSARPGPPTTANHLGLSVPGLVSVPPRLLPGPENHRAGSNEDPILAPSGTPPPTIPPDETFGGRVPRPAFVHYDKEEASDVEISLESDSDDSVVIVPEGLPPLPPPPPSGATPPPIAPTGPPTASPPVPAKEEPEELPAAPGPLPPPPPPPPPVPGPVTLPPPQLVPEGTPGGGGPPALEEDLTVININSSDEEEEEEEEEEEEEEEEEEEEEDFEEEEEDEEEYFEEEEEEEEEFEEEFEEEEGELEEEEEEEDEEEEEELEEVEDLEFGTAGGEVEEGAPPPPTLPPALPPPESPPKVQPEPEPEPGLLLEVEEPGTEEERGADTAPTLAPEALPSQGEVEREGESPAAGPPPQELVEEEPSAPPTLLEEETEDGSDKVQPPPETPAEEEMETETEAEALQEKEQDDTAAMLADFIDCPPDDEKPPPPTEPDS
Chain of epitope-tagged SENP3 (Q9H4L4 whole entry, the tested form may be a part): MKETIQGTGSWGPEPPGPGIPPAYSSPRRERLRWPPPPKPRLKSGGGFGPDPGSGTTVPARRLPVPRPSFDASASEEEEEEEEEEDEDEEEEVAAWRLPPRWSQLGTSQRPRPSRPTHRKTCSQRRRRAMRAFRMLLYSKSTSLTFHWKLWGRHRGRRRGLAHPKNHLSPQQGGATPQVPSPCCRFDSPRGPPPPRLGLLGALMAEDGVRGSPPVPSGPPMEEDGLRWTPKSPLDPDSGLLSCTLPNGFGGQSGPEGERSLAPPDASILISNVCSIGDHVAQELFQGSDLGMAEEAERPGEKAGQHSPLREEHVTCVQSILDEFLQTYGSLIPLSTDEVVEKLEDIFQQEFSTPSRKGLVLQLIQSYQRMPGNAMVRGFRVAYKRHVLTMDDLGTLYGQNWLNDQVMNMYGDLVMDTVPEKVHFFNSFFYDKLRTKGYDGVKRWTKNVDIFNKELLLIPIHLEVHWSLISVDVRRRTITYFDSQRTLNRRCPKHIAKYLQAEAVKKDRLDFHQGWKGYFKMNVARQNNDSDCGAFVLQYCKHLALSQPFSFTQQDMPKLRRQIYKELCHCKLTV

Binder | stoichiometry N [1] | binding result [2] | binding result (epitope-tagged SENP3) | binding result [3]
B1 | 2 |  |  | 
B2 |  | binds |  | 
C-terminally HA-tagged WDR18 (full length) (natural protein, human, UniProt Q9BV38 1-432, looked up, WDR18, human, full length; The HA tag is stated for the cryo-EM sample; Two copies stand in the heterotetramer; source: HEK293FT, transiently transfected; in lysate (co-IP) and co-purified with FLAG-tagged PELP1 constructs on anti-FLAG gel (cryo-EM, cross-linking); not shown: HA, C-terminal, kept) MAAPMEVAVCTDSAAPMWSCIVWELHSGANLLTYRGGQAGPRGLALLNGEYLLAAQLGKNYISAWELQRKDQLQQKIMCPGPVTCLTASPNGLYVLAGVAESIHLWEVSTGNLLVILSRHYQDVSCLQFTGDSSHFISGGKDCLVLVWSLCSVLQADPSRIPAPRHVWSHHALPITDLHCGFGGPLARVATSSLDQTVKLWEVSSGELLLSVLFDVSIMAVTMDLAEHHMFCGGSEGSIFQVDLFTWPGQRERSFHPEQDAGKVFKGHRNQVTCLSVSTDGSVLLSGSHDETVRLWDVQSKQCIRTVALKGPVTNAAILLAPVSMLSSDFRPSLPLPHFNKHLLGAEHGDEPRHGGLTLRLGLHQQGSEPSYLDRTEQLQAVLCSTMEKSVLGGQDQLRVRVTELEDEVRNLRKINRDLFDFSTRFITRPAK |  | binds | binds | binds
